Test [1] has as its target T1, Nluc-IL23R fusion protein (human, UniProt Q5VWK5 22-629).
T1 construct: range 22-629; Stably expressed in HEK293 cells; also called hIL-23R; human IL-23R fused to a Nanoluc luciferase enzyme; not shown: Nanoluc luciferase (Promega N1371 plasmid) at the N-terminus
T1 sequence (looked up): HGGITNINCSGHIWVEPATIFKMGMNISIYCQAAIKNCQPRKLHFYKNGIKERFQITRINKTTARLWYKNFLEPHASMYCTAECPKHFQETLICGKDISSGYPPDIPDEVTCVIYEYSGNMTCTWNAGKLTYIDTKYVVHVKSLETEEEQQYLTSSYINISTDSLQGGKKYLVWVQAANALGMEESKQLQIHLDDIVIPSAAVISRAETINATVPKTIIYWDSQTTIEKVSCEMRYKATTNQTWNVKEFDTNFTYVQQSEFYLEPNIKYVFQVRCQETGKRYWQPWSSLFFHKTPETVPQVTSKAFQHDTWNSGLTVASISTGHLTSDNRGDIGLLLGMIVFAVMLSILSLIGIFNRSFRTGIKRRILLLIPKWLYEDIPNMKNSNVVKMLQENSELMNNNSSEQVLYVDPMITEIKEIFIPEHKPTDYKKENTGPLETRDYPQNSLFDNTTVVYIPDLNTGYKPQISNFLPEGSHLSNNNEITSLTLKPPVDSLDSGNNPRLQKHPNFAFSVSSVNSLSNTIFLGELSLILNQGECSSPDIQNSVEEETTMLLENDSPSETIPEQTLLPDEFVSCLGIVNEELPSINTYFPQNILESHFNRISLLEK
The test can be described thus: BRET displacement of TAMRA-labelled peptide, Nluc-IL23R membranes. Background: Bioluminescence resonance energy transfer reports proximity on the nanometre scale.

For test [2], the target named is T2, human IL-23R endogenously expressed on DB cells (CRL-2289) (human, UniProt Q5VWK5 24-629).
T2 sequence (looked up): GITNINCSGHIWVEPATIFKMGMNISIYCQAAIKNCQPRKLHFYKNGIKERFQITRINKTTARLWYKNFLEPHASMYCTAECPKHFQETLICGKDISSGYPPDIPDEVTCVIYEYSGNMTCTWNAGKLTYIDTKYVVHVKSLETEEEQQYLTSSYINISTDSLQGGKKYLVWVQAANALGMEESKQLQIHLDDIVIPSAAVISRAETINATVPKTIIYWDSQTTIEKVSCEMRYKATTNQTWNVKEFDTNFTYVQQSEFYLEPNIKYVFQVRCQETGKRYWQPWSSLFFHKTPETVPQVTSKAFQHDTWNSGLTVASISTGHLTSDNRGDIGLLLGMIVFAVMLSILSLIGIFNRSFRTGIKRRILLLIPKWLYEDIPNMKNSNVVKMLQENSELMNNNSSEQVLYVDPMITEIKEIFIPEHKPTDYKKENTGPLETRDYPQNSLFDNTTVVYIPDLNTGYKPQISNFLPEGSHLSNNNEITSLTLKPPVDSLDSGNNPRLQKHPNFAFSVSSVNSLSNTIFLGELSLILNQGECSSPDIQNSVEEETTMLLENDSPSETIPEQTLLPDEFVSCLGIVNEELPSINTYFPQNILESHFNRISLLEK
The experiment in a line: cell-based or functional assay.

Test [3] deals with T2, human IL-23R endogenously expressed on …. The experiment in a line: cell-based or functional assay. The source holds these as a separate data set.
Test [4] addresses T1, Nluc-IL23R fusion protein. The test can be described thus: BRET displacement of TAMRA-labelled peptide, Nluc-IL23R membranes. The source holds these as a separate data set.
Experimental: (§1) The plate was sealed with light impermeable plate seals, and incubated on a orbital shaker 400 rpm for 2 hours at room temperature. To determine the BRET ratio, the plate seal was removed and 25 μL of the Nanoluc substrate (Promega N1572) diluted 1:500 was added to each well and incubated for 1-2 minutes on an orbital shaker at 400 rpm. […] The BRET ratio was calculated as the fluorescence from the TAMRA/nanoluc bioluminescence. The IC₅₀ for each compound was determined by computer-aided curve fitting using a 4-parameter logistic (4PL) non-linear model.
The target in test [5] is T2, human IL-23R endogenously expressed on …. The experiment in a line: cell-based or functional assay. The source holds these as a separate data set.
Test [6] has the same target. The experiment in a line: cell-based or functional assay. The source holds these as a separate data set.
Test [7] addresses T1, Nluc-IL23R fusion protein. The experiment in a line: BRET displacement of TAMRA-labelled peptide, Nluc-IL23R membranes. This is another data set of the same source.
Experimental: as §1
The target in test [8] is T1, Nluc-IL23R fusion protein. The description is as above. The source holds these as a separate data set.
Experimental: as §1
Test [9] concerns the target T2, human IL-23R endogenously expressed on …. The test can be described thus: cell-based or functional assay. The source holds these as a separate data set.
Test [10] concerns the target T1, Nluc-IL23R fusion protein. The experiment in a line: BRET displacement of TAMRA-labelled peptide, Nluc-IL23R membranes. The source holds these as a separate data set.
Experimental: as §1
The target of test [11] is T2, human IL-23R endogenously expressed on …. The experiment in a line: cell-based or functional assay. The source holds these as a separate data set.
For test [12] the target is unchanged. The test can be described thus: cell-based or functional assay. The source holds these as a separate data set.
Test [13] has as its target T1, Nluc-IL23R fusion protein. The experiment in a line: BRET displacement of TAMRA-labelled peptide, Nluc-IL23R membranes. This is another data set of the same source.
Experimental: as §1
Test [14] deals with T2, human IL-23R endogenously expressed on …. The experiment in a line: cell-based or functional assay. This is another data set of the same source.
Test [15] concerns the target T1, Nluc-IL23R fusion protein. The experiment in a line: BRET displacement of TAMRA-labelled peptide, Nluc-IL23R membranes. The source holds these as a separate data set.
Experimental: as §1
For test [16], the target named is T1, Nluc-IL23R fusion protein. The test is described as above. This is another data set of the same source.
Experimental: as §1
In test [17] the target is T2, human IL-23R endogenously expressed on …. The test can be described thus: cell-based or functional assay. The source holds these as a separate data set.
Test [18] deals with T1, Nluc-IL23R fusion protein. The test can be described thus: BRET displacement of TAMRA-labelled peptide, Nluc-IL23R membranes. This is another data set of the same source.
Experimental: as §1
In test [19] the target is T2, human IL-23R endogenously expressed on …. The test can be described thus: cell-based or functional assay. This is another data set of the same source.

Like-named read-outs stand apart in the source and are kept apart here. *1 amine or outer side, *2 acyl side, *3 side chain or, on linkers, in order; H or OH if unused. Bridges are numbered along the chain shown (N, C = ends). [ ]: non-standard residue; d: D form. 1,3‑dibromopropan‑2‑one = linker (CAS 816-39-7) joining two Cys as 1,3-dithio-propan-2-one bridge -SCH2C(=O)CH2S-; 2Nal = N[C@@H](Cc1ccc2ccccc2c1)C(=O)O; AEF = NCCOc1ccc(C[C@H](N)C(=O)O)cc1; CH2COCH2 = O=C(C[*:1])C[*:2]; 3Amb = NCc1cccc(C(=O)O)c1

What is called Ki is a measure of affinity in units of concentration, obtained from inhibition or displacement.

Take H-DESCWQCWWLKR-NH2 (lactam 2-11; linker 4-7 via 1,3‑dibromopropan‑2‑one) [Compound 4]: the Ki in [1], in test [4], in test [7] and in [8] was 143 nM in each case. The “IC50 (pSTAT3)” value was 847 nM in [2], more than 1 µM in test [3], more than 1 µM in [5] and more than 1 µM in [6].

B1: Compound 29 (peptide)
peptide: Ac-KSCWQC[AEF][2Nal]LER-NH2
modifications: lactam 1-10; linker 3-6 via CH2COCH2
SMILES: CC(=O)N[C@H]1CCCCNC(=O)CC[C@@H](C(=O)N[C@@H](CCCNC(=N)N)C(N)=O)NC(=O)[C@H](CC(C)C)NC(=O)[C@H](Cc2ccc3ccccc3c2)NC(=O)[C@H](Cc2ccc(OCCN)cc2)NC(=O)[C@@H]2CSCC(=O)CSC[C@H](NC(=O)[C@H](CO)NC1=O)C(=O)N[C@@H](Cc1c[nH]c3ccccc13)C(=O)N[C@@H](CCC(N)=O)C(=O)N2
Consider B1, for which the “IC50 (pSTAT3)” value in [2] and in test [9] was 19.7 nM each time.

B2: I4 (isomer 3) (peptide)
peptide: H-ECWLCYYRNCNCM-NH2
modifications: linker 5-10, 2-12 via 1,3‑dibromopropan‑2‑one
notes: Peptide of Heinis et al., 2020, synthesised and tested by the inventors
B2: the Ki in test [10] is more than 1000 nM. Further, the “IC50 (pSTAT3)” value in test [2] and in [11] was more than 1 µM throughout.

As for Ac-KSCWQCW[2Nal]LER-NH2 (lactam 1-10; linker 3-6 via CH2COCH2) [Compound 18], the Ki in [1], in [13], in test [15] and in [16] was 2.85 nM throughout. Also, the “IC50 (pSTAT3)” value in [12], in test [14], in [2] and in test [9] was 17.6 nM each time.

Consider Ac-DESCWQCW[2Nal]LKR-NH2 (lactam 2-11; linker 4-7 via CH2COCH2) [Compound 17], for which the Ki in [1] and in test [7] was 70.7 nM each time. Also, the “IC50 (pSTAT3)” value in test [2] and in test [3] was 366 nM in each case.

[3Amb]SCWQCW[2Nal]LER-NH2 (lactam N-10; linker 3-6 via CH2COCH2) [Compound 37]: the results for the inhibition constant (Ki) in test [1], in [15] and in test [18] were 9.87 nM, 9.86 nM and 9.86 nM, respectively. Besides, the “IC50 (pSTAT3)” value in test [17], in test [14] and in test [2] was 44.6 nM each time.

B3: Compound 19 (peptide)
peptide: DKSCWQCWXLER
HELM: PEPTIDE1{[ac].D.K.S.C.W.Q.C.W.[O=C([C@H](Cc1ccc2ccccc2c1)N[*:1])[*:2]].L.E.R.[am]}|CHEM1{[O=C(C[*:1])C[*:2]]}$PEPTIDE1,PEPTIDE1,3:R3-12:R3|PEPTIDE1,CHEM1,5:R3-1:R1|PEPTIDE1,CHEM1,8:R3-1:R2$$$V2.0
SMILES: CC(=O)N[C@@H](CC(=O)O)C(=O)N[C@H]1CCCCNC(=O)CC[C@@H](C(=O)N[C@@H](CCCNC(=N)N)C(N)=O)NC(=O)[C@H](CC(C)C)NC(=O)[C@H](Cc2ccc3ccccc3c2)NC(=O)[C@H](Cc2c[nH]c3ccccc23)NC(=O)[C@@H]2CSCC(=O)CSC[C@H](NC(=O)[C@H](CO)NC1=O)C(=O)N[C@@H](Cc1c[nH]c3ccccc13)C(=O)N[C@@H](CCC(N)=O)C(=O)N2
Turning to B3, in test [1], the affinity corresponds to a Ki of 6.33 nM. Also, the figures for the “IC50 (pSTAT3)” value in test [12], in test [2] and in test [19] were 32.3 nM, 33.2 nM and 32.3 nM, respectively.

Source of the values: patent publication US20250154198A1, “PEPTIDE INHIBITORS OF INTERLEUKIN-23 RECEPTOR” (Zealand Pharma A/S, priority 2021, published 2025).
